These results are taken from article PMC4020579 (Biochemistry, 2014).

As usually defined, the Kd is the free concentration of one partner at which half of the binding sites on the other are occupied at equilibrium, for simple one-to-one binding.

Data set [1] in a line: Solubility of RPA32C in crystallization screening. The format is physicochemical. The conditions noted are these: all sparse matrix conditions examined, standard buffer conditions.
The target in data set [2] is RPA32C, the optimized RPA32_(202–270) construct (C-terminal winged-helix domain of the RPA 32 kDa subunit) (UniProt P15927 202-270). The data set can be described thus: NMR titration.
RPA32C, the optimized RPA32_(202–270) construct (C-terminal winged-helix domain of the RPA 32 kDa subunit), sequence (P15927 202-270): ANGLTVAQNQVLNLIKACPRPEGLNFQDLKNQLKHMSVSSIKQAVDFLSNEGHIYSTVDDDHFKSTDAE
In data set [3] the target is RPA32_(172–270), the previously reported RPA32C construct of the replication protein A 32 kDa subunit (UniProt P15927 172-270). Nature of the data set: ITC. In general terms: Isothermal titration calorimetry measures the heat released or taken up as one component is titrated into another.
RPA32_(172–270), the previously reported RPA32C construct of the replication protein A 32 kDa subunit, sequence (P15927 172-270): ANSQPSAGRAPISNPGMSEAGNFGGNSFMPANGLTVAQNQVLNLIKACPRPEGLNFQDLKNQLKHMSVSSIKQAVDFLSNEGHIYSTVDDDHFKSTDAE

Where only a bound is given, the exact number is not on record here.

As for “RPA32C: optimized C-terminal winged-helix domain construct of the RPA 32 kDa subunit, residues 202–270”, in data set [1], the “concentration at which soluble” value is at least 40000 µg/mL.
As to EEQRKKIEENRQKALARRAEKLLAEQ (peptide, UniProt Q9NZC9 7-32, looked up) [SMARCAL1_(7–32) peptide], the binding result in data set [2] is given as “binds”.
In turn, MSLPLTEEQRKKIEENRQKALARRAEKLLAEQ (peptide, UniProt Q9NZC9 1-32, looked up) [SMARCAL1_(1–32), SMARCAL1 residues 1–32 containing the RPA binding motif (RBM)] had a Kd in data set [3] of 2500 ± 100 nM.
